Laboratory results as given in article PMC7815755.

Legend:
[1] = target: Immunity-related GTPase B10 (IRGB10), mouse, full length, wild type (mouse) (UniProt Q0GUM3); test: SEC-MALS; third peak of the first SEC, Superdex 200 10/300, 20 mM Tris-HCl pH 8.0, 150 mM NaCl, room temperature, no GTP added
[2] = target: IRGB10 D185R mutant (head-to-head dimer disruption mutant) (mouse) (UniProt Q0GUM3); test: SEC-MALS; tentative dimer peak of the head-to-head disruption mutants (Fig. 3e, g)

With “Immunity-related GTPase B10 (IRGB10), mouse, full length, wild type (from UniProt Q0GUM3 1-417) (natural protein)” as the substance, how does the stoichiometry N [1] read?
The stoichiometry N was 2.

How did the stoichiometry N [2] turn out when “IRGB10 D185R mutant (head-to-head dimer disruption mutant) (from UniProt Q0GUM3 1-417) (natural protein)” was run?
Its stoichiometry N is 2.
